From patent US20140170149A1 (Genmab, published 2014)

Key:
[1] = target: T1, human epidermal growth factor receptor 2 (HER2) (human, UniProt P04626 23-1255); assay: flow cytometry on A431 cells (low HER2), PE-goat anti-human IgG, MFI; EC50 by non-linear regression (Example 12)
T1 construct: whole, on cells; One entry for endogenous HER2 on tumor cell lines and for the fully human construct hu-HER2 on CHO-S cells; also called ErbB-2; hu-HER2
Method: (§1) Binding of HER2 antibodies was detected using a Phycoerythrin (PE)-conjugated goat-anti-human IgG antibody (Jackson). […] EC₅₀ values were determined by means of non-linear regression (sigmoidal dose-response with variable slope) using GraphPad Prism V4.03 software (GraphPad Software, San Diego, Calif., USA).

[2] = target: T1, human epidermal growth factor receptor …; assay: cell-based or functional assay
[3] = target: T1, human epidermal growth factor receptor …; assay: flow cytometry on AU565 cells (high HER2), PE-goat anti-human IgG, MFI; EC50 by non-linear regression (Example 12)
Method: as §1

[4] = target: T1, human epidermal growth factor receptor …; assay: as above; remark: listed apart in the source
Method: as §1

[5] = target: T1, human epidermal growth factor receptor …; assay: flow cytometry on A431 cells (low HER2), PE-goat anti-human IgG, MFI; EC50 by non-linear regression (Example 12); remark: listed apart in the source
Method: as §1

[6] = target: T1, human epidermal growth factor receptor …; assay: as above; remark: listed apart in the source
Method: as §1

[7] = target: T1, human epidermal growth factor receptor …; assay: flow cytometry on AU565 cells (high HER2), PE-goat anti-human IgG, MFI; EC50 by non-linear regression (Example 12); remark: listed apart in the source
Method: as §1

[8] = target: T2, human CD3 protein complex (human, UniProt P07766 23-207; P09693 23-182; P04234 22-171; P20963 22-164); assay: flow cytometry on Jurkat cells (CD3-expressing T cell line), MFI (PE) (Example 21)
T2 construct: whole, on cells; also called CD3 on Jurkat cells
T2 sequence (P07766 23-207, form in doubt, chain 1 of 4): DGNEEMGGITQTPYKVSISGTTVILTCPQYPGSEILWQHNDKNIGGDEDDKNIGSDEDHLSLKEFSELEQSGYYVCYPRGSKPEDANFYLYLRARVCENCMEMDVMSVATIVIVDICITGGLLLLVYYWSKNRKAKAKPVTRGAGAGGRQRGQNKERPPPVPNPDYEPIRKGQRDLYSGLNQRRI
T2 sequence (P09693 23-182, form in doubt, chain 2 of 4): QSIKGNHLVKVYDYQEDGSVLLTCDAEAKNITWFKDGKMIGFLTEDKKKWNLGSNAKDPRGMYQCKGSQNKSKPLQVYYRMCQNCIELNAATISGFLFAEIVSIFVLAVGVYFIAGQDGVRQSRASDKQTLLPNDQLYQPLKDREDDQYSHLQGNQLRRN
T2 sequence (P04234 22-171, form in doubt, chain 3 of 4): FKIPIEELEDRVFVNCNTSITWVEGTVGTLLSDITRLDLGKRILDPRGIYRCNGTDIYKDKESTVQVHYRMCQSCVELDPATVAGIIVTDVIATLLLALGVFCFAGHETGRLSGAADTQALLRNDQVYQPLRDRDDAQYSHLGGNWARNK
T2 sequence (P20963 22-164, form in doubt, chain 4 of 4): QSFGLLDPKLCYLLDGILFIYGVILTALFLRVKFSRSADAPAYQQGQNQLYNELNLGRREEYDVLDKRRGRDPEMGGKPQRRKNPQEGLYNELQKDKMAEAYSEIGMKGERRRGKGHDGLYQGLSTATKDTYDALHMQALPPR

Binder | EC50 [1] | EC50, fab-CypHer5E internalization assay, AU565 cells [2] | Maximal MFI, fab-CypHer5E internalization assay, AU565 cells [2] | EC50 [3] | EC50 [4] | EC50 [5] | EC50 [6] | EC50 [7] | EC50 (read off the curve) [8]
HER2 HuMab 132 (antibody, V domains shown, also called PC1014-132) VH: QVQLVQSGAEVKKPGASVKVSCKASGYTFTSYGISWVRQAPGQGLEWMGWISAYNGNSNYVQKFQGRVTMTTDTTTSTAYMELRSLTSDDTAVYYCAREYSYDSGTYFYYGMDVWGQGTTVTVSS VL: EIVLTQSPATLSLSPGERATLSCRASQSVSSYLAWYQQKPGQAPRLLIYDASNRATGIPARFSGSGSGTDFTLTISSLEPEDFAVYYCQQRSNWPMYTFGQGTKLEIK | 0.068 µg/mL | 0.0114 µg/mL | 112000 MFI | 0.911 µg/mL | – | – | – | – | –
HER2 HuMab 084 (antibody, V domains shown, also called PC1014-084) VH: QVQLVQSGAEVKKPGSSVKVSCKASGGTFRTYAINWVRQAPGQGLEWMGRINTVLGIVNHAQKFQGRVTITADKSTNTAYMELNSLRSEDTAVYYCAREKGVDYYYGIEVWGQGTTVTVSS VL: DIQMTQSPSSVSASVGDRVTITCRASQGISSWLAWYQHKPGKAPKLLIYVASTLQSGVPSRFSGSGSGTDFTLTISSLQPEDFATYYCQQANSFPLTFGGGTKVEIK | – | 0.0305 µg/mL | 71100 MFI | – | 0.491 µg/mL | 0.498 µg/mL | – | – | –
HER2 HuMab 005 (antibody, human IgG1, V domains shown, Human IgG1,κ; also called PC1014-005; TH1014-005) VH: EVQLVQSGAEVKKPGESLKISCKASGYSFHFYWIGWVRQMPGKGLEWMGSIYPGDSDTRYRPSFQGQVTISADKSISTAYLQWTSLKASDTAIYYCARQRGDYYYFYGMDVWGQGTTVTVSS VL: not shown | – | 0.0214 µg/mL | 95100 MFI | – | – | – | 0.789 µg/mL | 0.818 µg/mL | –
HER2 HuMab 127 (antibody, V domains shown) VH: EVQLVQSGAEVKKPGESLTISCKGSGYSFSIYWIGWVRQMPGKGLEWMGIIFPGDSDIRYSPSFQGQVTISADKSISTAYLQWSSLKASDTAMYYCARQPGDWSPRHWYFDLWGRGTLVTVSS VL: VIWMTQSPSLLSASTGDRVTISCRMSQGISSYLAWYQQKPGKAPELLIYAASTLQSGVPSRFSGSGSGTDFTLTISYLQSEDFATYYCQQYYSFPLTFGGGTKVEIK | – | ~0.00968 µg/mL | 138000 MFI | – | 2.29 µg/mL | 0.27 µg/mL | – | – | –
HER2 HuMab 059 (antibody, V domains shown, also called PC1014-059) VH: QVQLVQSGAEVKKPGASVRVPCKASGYTFTRYGISWVRQAPGQGLEWMGWISAYNGKTYYAQKLQGRVTMTTDTSTSTAYMELRSLRSDDTAVYYCARSPLLWFEELYFDYWGQGTLVTVSS VL: EIVLTQSPGTLSLSPGERATLSCRASQSVSSTYLAWYQQKPGQAPRLLIYGASSRATGIPDRFSGSGSGTDFTLTISRLEPEDFAVYYCQQYGTSLFTFGPGTKVDIK | – | 0.0148 µg/mL | 77100 MFI | – | – | – | 0.213 µg/mL | 1.31 µg/mL | –
HER2 HuMab 129 (antibody, V domains shown, also called PC1014-129) VH: QVQLVESGGGVVQPGRSLRLSCAASGFTFSTFAIHWVRQAPGKGLEWVAVISYDGGHKFYADSVKGRFTISRDNSKNTLYLQMNSLRAEDTAMYYCARGLGVWGAFDYWGQGTLVTVSS VL: EIVLTQSPATLSLSPGERATLSCRASQSVSSYLAWYQQKPGQAPRLLIYDASNRATGIPARFSGSGSGTDFTLTISSLEPEDFAVYYCQQRSNWWTFGQGTKVEIK | 0.316 µg/mL | 0.00715 µg/mL | 60300 MFI | 0.578 µg/mL | – | – | – | – | –
HER2 HuMab 111 (antibody, V domains shown, also called PC1014-111) VH: QVQLVQSGAEVKKPGSSVKVSCKASGGTFSSYGISWVRQAPGPGLEWMGRIIPILGIANYAQKFQGRVTITADKSTNTAYMELSSLRSEDTAVYYCARDQEYSSNWYYWGQGTLVTVSS VL: not shown | – | 0.0352 µg/mL | 81700 MFI | – | – | – | 0.996 µg/mL | 0.915 µg/mL | –
HER2 HuMab 060 (antibody, V domains shown, also called PC1014-060) VH: EVQLVQSGAEVKKPGESLKISCKGSGYRFTSYWIGWVRQMPGKGLEWMGSIYPGDSYTRNSPSFQGQVTISADKSIATAYLQWNSLKASDTAMYYCARHAGDFYYFDGLDVWGQGTTVTVSS VL: not shown | – | 0.0362 µg/mL | 68200 MFI | – | – | – | 1.98 µg/mL | 2.68 µg/mL | –
HER2 HuMab 169 (antibody, V domains shown) VH: QVQLVQSGAEVKKPGASVKVSCKASGYTFTNYGISWVRQAPGQGLEWMGWLSAYSGNTIYAQKLQGRVTMTTDTSTTTAYMELRSLRSDDTAVYYCARDRIVVRPDYFDYWGQGTLVTVSS VL: EIVLTQSPATLSLSPGERATLSCRASQSVSSYLAWYQQKPGQAPRLLIYDASNRATGIPARFSGSGSGTDFTLTISSLEPEDFAVYYCQQRSNWPRTFGQGTKVEIK | 0.415 µg/mL | – | 38800 MFI | 0.908 µg/mL | – | – | – | – | –
HER2 HuMab 106 (antibody, V domains shown) VH: EVQLVQSGAEVKKPGESLKISCKGSGYSFTRYWIGWVRQMPGKGLEWMGIIYPGDSDTRYSPSFQGQVTISADKSISTAYLQWSSLKASDTAMYYCARLTGDRGFDYYSGMDVWGQGTTVTVSS VL: not shown | – | 0.0686 µg/mL | 57400 MFI | – | – | – | 1.66 µg/mL | 1.55 µg/mL | –
IgG1-hu-CLB-T3/4-F405L (antibody, V domains shown, Expressed as IgG1,κ with F405L) VH: EVQLVESGGGLVKPGGSLRLSCAASGFTFSSYGMFWVRQAPGKGLEWVATISRYSRYIYYPDSVKGRFTISRDNAKNSLYLQMNSLRAEDTAVYYCARRPLYGSSPDYWGQGTLVTVSS VL: EIVLTQSPATLSLSPGERATLSCSASSSVTYVHWYQQKPGQAPRLLIYDTSKLASGIPARFSGSGSGTDFTLTISSLEPEDFAVYYCFQGSGYPLTFGSGTKLEMR | – | – | – | – | – | – | – | – | ~0.03 µg/mL
HER2 HuMab 025 (antibody, V domains shown, also called PC1014-025; TH1014-025) VH: QVQLQQWGAGLLKPSETLSLTCAVYGGSFSDYYWNWIRQPPGKGLEWIGEIHHSGSTNYNPSLKSRVTISVDTSKNQFSLKLSSVTAADTAVYYCARGYYDSGVYYFDYWAQGTLVTVSS VL: DIQMTQSPSSLSASVGDRVTITCRASQGISRWLAWYQQKPEKAPKSLIYAASSLRSGVPSRFSGSGSGTDFTLTISSLQPEDFATYYCQQYNSYPITFGQGTRLEIK | – | 0.0301 µg/mL | 63400 MFI | – | 0.58 µg/mL | 0.128 µg/mL | – | – | –
HER2 HuMab 098 (antibody, V domains shown, also called PC1014-098; TH1014-098) VH: EVQLLESGGGLVQPGGSLRLSCAASGFTFSNYGMSWVRQAPGKGLEWVSAISGSAYSTYYADSVKGRFTISRDNSKNTLWLQMNSLRAEDTAVYYCAKAHYHGSGSYYTLFDYWGQGTLVTVSS VL: DIQMTQSPSSLSASVGDRVTITCRASQGISSWLAWYQQKPEKAPKSLIYAASSLQSGVPSRFSGSGSGTDFTLTISSLQPEDFATYYCQQYNSYPYTFGQGTKLEIK | – | 0.0138 µg/mL | 135000 MFI | – | 0.336 µg/mL | 0.101 µg/mL | – | – | –
HER2 HuMab 159 (antibody, V domains shown, also called PC1014-159) VH: EVQLVQSGAEVKKPGESLKISCKGSGYNFTSYWIGWVRQMPGKGLEWMGIIYPGDSDTRYSPSFQGQVTISADKSISTAYLQWSSLKASDTAMYYCARWGTYYDILTGYFNWFDPWGQGTLVTVSS VL: DIQMTQSPSSLSASVGDRVTITCRASQGISSWLAWYQQKPEKAPKSLIYAASSLQSGVPSRFSGSGSGTDFTLTISSLQPEDFATYYCQQYYIYPWTFGQGTKVEIK | 0.855 µg/mL | – | 92400 MFI | 1.3 µg/mL | – | – | – | – | –
HER2 HuMab 050 (antibody, V domains shown, also called PC1014-050) VH: EVQLLESGGGLVQPGGSLRLSCAASGFTFSSYAMNWVRQAPGKGLEWVSAISGRGGTTYYADSVKGRFTISRDNSKNTLYLQMSSLRAEDTAVYYCAKARANWDYFDYWGQGTLVTVSS VL: DIQMTQSPSSVSASVGDRVTITCRASQGISSWLAWYQHKPGKAPKLLIYAASILQSGVPSRFSGSGSGTDFTLTISSLQPEDFATYYCQQANSFPITFGQGTRLEIK | – | – | – | – | 0.722 µg/mL | 1.14 µg/mL | – | – | –
HER2 HuMab 091 (antibody, V domains shown, also called PC1014-091) VH: QVQLQQWGAGLLKPSETLSLTCAVSGGSFSGYYWTWIRQPPGKGLEWIGEIYHSGDTNYNPSLKSRVTISVDTSKNQFSLKLYSVTAADTAVYYCARLYFGSGIYYLDYWGQGTLVTVSS VL: DIQMTQSPSSLSASVGDRVTITCRASQGISSWLVWYQQKPEKAPKSLIYAASSLQSGVPSRFSGSGSGTDFTLTISSLQPEDFATYYCQQYNSFPPTFGQGTKVEIK | – | 0.033 µg/mL | 50700 MFI | – | 0.965 µg/mL | 0.633 µg/mL | – | – | –
IgG1-hu-CLB-T3/4-F405L × IgG1-HER2-153-K409R (bispecific antibody, Made by 2-MEA-induced Fab-arm exchange; IgG1,κ; also called huCLB-T3/4×HER2 153) heavy 1: not shown VL 1: DIQMTQSPSSLSASVGDRVTITCRASQGISSWLAWYQQKPEKAPKSLIYDASSLQSGVPSRFSGSGYGTDFSLTISSLQPEDFAIYYCQQYKSYPITFGQGTRLEIK heavy 2: not shown VL 2: EIVLTQSPATLSLSPGERATLSCSASSSVTYVHWYQQKPGQAPRLLIYDTSKLASGIPARFSGSGSGTDFTLTISSLEPEDFAVYYCFQGSGYPLTFGSGTKLEMR | – | – | – | – | – | – | – | – | ~0.2 µg/mL
